One data set deals with His6-Ypt1 (UniProt P01123 1-206). The experiment in a line: EMSA. (Mobility shift assays separate free from complexed probe on a gel.)
Data set [1] addresses T1, His6-Pal2 (Pal2-deltaN65) (Saccharomyces cerevisiae, UniProt P38809 65-366).
T1 sequence: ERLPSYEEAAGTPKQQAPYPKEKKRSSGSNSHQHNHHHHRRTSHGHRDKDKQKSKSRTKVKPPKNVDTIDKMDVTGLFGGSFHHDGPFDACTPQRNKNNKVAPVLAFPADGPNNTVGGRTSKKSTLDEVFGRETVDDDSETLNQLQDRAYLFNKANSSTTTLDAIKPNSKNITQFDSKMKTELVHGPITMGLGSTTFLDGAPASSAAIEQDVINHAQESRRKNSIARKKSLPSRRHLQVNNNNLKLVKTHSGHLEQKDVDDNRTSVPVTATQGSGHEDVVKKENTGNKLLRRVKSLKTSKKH
Briefly: EMSA.

A further data set has as its target T2, His6-Pal1 (Pal1-deltaN) (Saccharomyces cerevisiae, UniProt Q05518 165-499).
T2 sequence: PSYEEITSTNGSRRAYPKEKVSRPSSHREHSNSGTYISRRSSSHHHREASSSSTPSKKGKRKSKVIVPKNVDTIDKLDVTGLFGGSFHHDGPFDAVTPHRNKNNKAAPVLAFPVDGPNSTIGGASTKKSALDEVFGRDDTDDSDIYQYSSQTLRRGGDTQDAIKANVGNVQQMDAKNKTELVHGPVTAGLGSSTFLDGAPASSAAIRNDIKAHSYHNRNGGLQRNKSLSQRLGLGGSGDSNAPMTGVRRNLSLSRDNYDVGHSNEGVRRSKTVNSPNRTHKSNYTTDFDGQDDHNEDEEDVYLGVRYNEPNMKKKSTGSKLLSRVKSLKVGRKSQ
Briefly: EMSA.

The target in data set [2] is T1, His6-Pal2 (Pal2-deltaN65). Briefly: competition.

Sequence of His6-Ypt1 (P01123 whole entry): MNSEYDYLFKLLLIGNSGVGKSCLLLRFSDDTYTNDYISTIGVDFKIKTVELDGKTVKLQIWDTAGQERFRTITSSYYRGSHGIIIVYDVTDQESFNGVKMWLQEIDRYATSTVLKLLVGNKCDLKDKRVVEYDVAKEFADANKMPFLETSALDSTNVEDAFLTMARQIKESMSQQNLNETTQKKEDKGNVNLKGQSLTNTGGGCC

B1: Flc-3'-BE (HAC1 3'-UTR bipartite element) (structured_RNA)
RNA: CGUGAGGUUGGCGCGCCCUCCUACAAUUAUUUGUGGCGACUGGGCAGCGACACUGAACA
As for B1, the figures for the binding result (in the data set with His6-Ypt1; in data set [1]; with His6-Pal1 (Pal1-deltaN)) were “no binding”, “binds” and “binds”, respectively.

B2: unlabeled 3'-BE transcript (structured_RNA)
RNA: GGGCGUGAGGUUGGCGCGCCCUCCUACAAUUAUUUGUGGCGACUGGGCAGCGACACUGAACA
In the case of B2, the binding result in data set [2] is listed as “binds”.
